From patent publication US20090004198A1 (published 2009) come the findings set out here.

This assay has as its target T1, GST-HCMV-AD1 fusion protein (human cytomegalovirus (HCMV), UniProt P06473 552-635).
T1 construct: also called GST fused HCMV-AD1; not shown: GST (glutathione S-transferase) fusion partner
As to the kind of experiment: BIAcore (SPR); antigen fixed to the sensor chip, antibody as analyte; GST protein as control.

T1 sequence (P06473 552-635 limits assumed): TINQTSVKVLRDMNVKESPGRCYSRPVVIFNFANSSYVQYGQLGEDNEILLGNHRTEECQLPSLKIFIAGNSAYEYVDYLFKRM

B1: anti-HCMV antibody (G3D No. 9) (antibody, human IgG1, kappa, V domains shown)
VH: QVQLVESGGGMVQPGKSLRLSCAASGFTFSSYGMHWVRQAPGRGLEWVAIIWYDGDNTWYADSVKGRITISRDNSKNMLYLQMDSLRVEDTALYYCVRGGLGYFNGWDVDHWGQGTLVTVSS
VL: DVVMTQSPLSLPVTLGQPASISCRSSESLVYSDGNTYLNWFQQRPGQSPRRLISKVSNRDSGVPDRFSGSGSGTDFTLKISRVEAEDVGVYYCMQGSHWPPYTFGQGTKLEIKR
notes: also called G3D No. 9 antibody; anti-HCMV monoclonal antibody
One may read the Kd as the free concentration of one partner at which half of the binding sites on the other are occupied at equilibrium, for simple one-to-one binding. Low readings indicate tighter binding, high ones weaker binding. As for B1, binding was put at a Kd of 0.0116 nM.
